B1: TPR t1 (parent)
chain: GACCAAUCUGCCCUCAGAGCUCGAGAACAUCUUCGGAUGCAGAGGAGGCAGGCUUCGGUGGCGCGAUAGCGCCAACGUCCUCAACCUCCAAUGCAUCCCACCACAUGAUGAUGCCUGAAGAGCCUUGGUUUUUUG

The variants in this data set derive from B1. Briefly: polymerase ribozyme fitness, log enrichment relative to wild type (log ratio); higher = more active; in vitro selection for triplet polymerase activity. A digest of the protocol: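 PCR was used to build mutant libraries for each subunit of a heterodimeric triplet polymerase ribozyme, which were then transcribed. A single in vitro selection round, in triplicate, used a frozen incubation at −7 °C and recovered extended constructs by gel excision, streptavidin beads and RT-PCR. Fitness is the logarithm of genotype enrichment relative to wild-type enrichment, averaged over replicates with inverse-variance weights. The logarithm is base 2, and after Illumina sequencing only genotypes with ≥10 input reads and ≥1 read per output were kept.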
GACCAAUCUGCCCUCAGAGCCCGAGAACAUCUUCGGAUGCAGAGGAGGCAGGCUUCGGUGGCGCGAUAGCUCCAACGUCCUCAACGUCCAAUGCAUCCCACCACAUGAUGAUGCCUAAAGAGCCUUGGUUUUUUG [U21C G71U C86G G117A]: the “polymerase ribozyme fitness (log ratio)” value is -5.6.
With GACCAAUCUGCCCUCAGAGCUCGAGAACAUCUUCGGAUGCUGAGGAGGCAGGCUUCGCUGGCGCGAUAGCGCCAACGUCCUCAACCUCCAAUGCAUCCCACCACAUGAUGAUGCCUGAAGAGCCUUGGUUUUUUG [A41U G58C], the “polymerase ribozyme fitness (log ratio)” value is -1.16.
Turning to GACCAAUCUGCCCUCAGAGCUCGAGAACAUCUUCGGAUGCAGAGGAGGCAGGCUUCGCUGGCGCGAUAGCGCCAACGUCCUCAACCUCCAAUGCAUCCCACCACAUGAGGAUGCCUAAAGAGCCUUGGUUUUUUG [G58C U109G G117A], the “polymerase ribozyme fitness (log ratio)” value is -5.76.
For GACCAAUCUGCUCUCAGAACUCGAGAACAUCUUCGGAUGCAGAGGAGGCAGGCUUGGGUGGCGCGAUAGCGCCAACGUCCUCAACCUCCAAUGCAUCCCACCACAUGAUGAUGCCUGAAGAGCCUUGGUCUUUUG [C12U G19A C56G U130C], the “polymerase ribozyme fitness (log ratio)” value is -2.66.
Then GACCAUUCUGCCCUCAGAGCUCGAGAACAUCUUCGGAUGCAGAGGAGGCAGGCUUCGGUGGCGCGAUAGCGCCAACGUCCUCAACCUCCAAUCCAUCCCACCACAUGAUGAUGCCUGAAGAGCCUUGGUUUUUUG [A6U G93C], with -0.28; and GACCAAUCUGCCCUCAGAGCUCGAGAACAUCUUCGGAUGCAGAGGAGGGAGGCUUCGGUGGCGCGAUAGCGCCAACUUCCUCAACCUCCAAUGCAUCCCACCACAUGAUGAUGCCUGAAGAGCCUUGGUUUUUUG [C49G G77U], with -1.25.
Then GACCAAUCUGCCCUCAGAGCUCGAGAACAUCUUCGGAUGAAGUGGAGGCAGGCUUCGGUGGCGCGAUAGCGCCAACGUCCUUAACCUCCAAUGCAUCCCACCACAUGAUGAUGCCUGAAGAGCCUUGGUUUUUUG [C40A A43U C82U], with -3.09.
For GACCAAUCUGCCCUCAUAGCUCGAGAACAUCUUCGGAUGCAGAGGAGGCAGGCUUCGGUGGCGCGAUAGCGCCAACGUCCUCAACCUCCAAUGCAUCCCACCACAUGAUGAUGCCUGAAGAGCCUUGGUCUUUUG [G17U U130C], the “polymerase ribozyme fitness (log ratio)” value was -1.79.
Then GACCAAUCUGCCCUCAGAGCUCGAGAACAUCUUCGGAUGCAGAGGAGGCAGGCUUCGGUGGCGCGAUAGCGCCAACGUCCUCAACCUCCAAGGCAUCCCACCACAUGAUGAUGCCUGAAGAGCCUUGGUUUUUUG [U92G], with -2.38; and GAUCAAUAUGCCCUCAGAGCUCGAGAACAUCUUCGGAUGCAGAGGAGGCAGGCUUCGGUGGCGCGAUAGCGCGAACGUCCUCAACCUCCAAUGCAUCCCACCACAUGAUGAUGCCUGAACAGCCUUGGUUUUUUC [C3U C8A C73G G120C G135C], with 1.56.
For the variant GACCAAUCUGCCCUCAGAGCUCGAGAACAUCUUCGGAUGCAGAGGAGGCAGGCUUCGGUGGCGCGAUAGCGCCAACGUCCUCAAACUCCAAUGGAUCCCACCACAUGAUAAUGCCUGAAGAGCCUUGGUUUUUUG [C85A C94G G110A], the “polymerase ribozyme fitness (log ratio)” value was -3.12.
Regarding GACCAAUCUGCACUCAGAGCUCGAGAACAUCUUCGGAUGCAGAGGAGGCAGGCAUCGGUGGCGCGAUAGCGCCAACGUCGUCAACCUCCAAUGCAUCCCACCACAUGAUGAUGCCUGAAGAGCCUUGGUUUUUUG [C12A U54A C80G], the “polymerase ribozyme fitness (log ratio)” value is -4.17.
Then GACCAAUCUGCCCUCAGACCUCGAGAACAUCUUCGGAUGCAGAGGAGUCAGGCUUCGGUGGCGCGAUAGCGCCAACGUCCUCAACCUCCAAUGCAUCCCACCACAUGAUGAUGCCUGAAGAGCCUUGGUUUUUUG [G19C G48U], with -2.5.
Then GACCAAUCUCCCCUCAGAGCUCGAGAACAUCUUCGGAUGCCGAGGAGACAGGCUUCGGUGGCGCGAUAGCGCCUACGUCCUCAACCUCCAAUGCAUCCCAUCACAUGAUGAUGCCUGAAGAGCCUUGGUUUUUUG [G10C A41C G48A A74U C101U], with -3.49.
GACCAAUGGGCCCUCAGAGCUCGAGAAGAUCUUCGGAUGCAUAGGAGUCAGGCUACGGUGGCGCGAUAGCGCCAACGUCCUCAACCUCCAAUGCAUCCCACCAUAUGAUGAUGCCUGAACAGCCUUGGUUUUUUG [C8G U9G C28G G42U G48U U55A C104U G120C]: the “polymerase ribozyme fitness (log ratio)” value was -3.54.
Then GACCAAUCUGCCCUCAGAGCUCGAGAACAUCUUCGGAUGCAGAGGAGGCAGGCUUCAGUGGCGCGAUAGCGCCAACGUCCUCAACCUCCAAUGCAUCCCACCACAGGAUGAUGCCUGAAGCGCCUUGGUUUUUUG [G57A U106G A121C], with -0.75; and GACCAAUCUGCCCUCAGAGCUCGAGAACAUCUUCGUAUGCAGAGGAGGCAGGCUUCGGUGGCGCGAUAGCGCCAACGUCCCCAACCUCCAAUGCAUCCCACCACAUCAUGAUGCCUGAAGAGCCUUGGUUUUUUG [G36U U81C G107C], with -5.8; and GACCAAUCUGCCCUCAGAGCUCGAGAACAUCUUCGGAUGCAGAGGAGGCAGACUUCGGUGGCGCGAUAGCGCCAACGUCCUCAACCUCCAAUGCAUCCCACCACAUGAUGAUGCCUGAAAAGCCUUGGUUUUUUG [G52A G120A], with 0.47.
As for GACCAAUAUGCCCUCAGAGCUCGAGAACAUCUACGGAUGCAUAGGAGGCAGGCUUCGGUGGCGCGAUAGCGCCAACGUCCUCAACCUCCAAUGCAUCCCACCACAUGAUGAAGCCUGAAGAGACUUGGUUUUUUG [C8A U33A G42U U112A C123A], the “polymerase ribozyme fitness (log ratio)” value was -6.39.
For the variant GACCAAUCUGCCCUCAGAGCUCGAGAACAUCUUCGGAUGCAGAGGAGGCAGCCUUCGGUGGCGCGAUAGCCCCAACGUCCUCAACCUCCAAUGCAUCCCACUAAAUGAUGAUGCCUGAAGAGCCUUGGUUUUUUG [G52C G71C C102U C104A], the “polymerase ribozyme fitness (log ratio)” value is -3.27.
Then GACCAAUCUGCCCUCAGAGCUCGAGAACAUCUUCGGAUGGAGAGGAGGCAGGCUUCGGUGGCGCGAUAGCGCCAACGUCCCCAACCUCCAAUGCAUCCCACCACAUGAUGAUGCCUGAAGAGCCUUGGUUUUUUG [C40G U81C], with -1.19.

(Values after the RNAGym collection of RNA variant scans (doi:10.1073/pnas.2313332121).)
